We go through one substance from paper PMC2874908.

The target in assay [1] is β-catenin (endogenous, CHO cells) (Chinese hamster (endogenous in CHO)) (UniProt G3H996). Briefly: co-IP.
The target is the same in assay [2]. Put plainly: co-IP. The source holds these as a separate data set.

Where two headings read alike, the source gives them in different places.

For the substance “dynein (microtubule motor protein; endogenous, CHO cells) (complex)”, the fold change of dynein with β-catenin, V13 cells against E-cadherin cells in assay [1] was 2 to 2.5 fold; in assay [2], 3 fold.
